From the supplement of paper PMC10567573 come the findings set out here.

± gives the standard deviation.

A short description of this series: protein stability index of a GFP-peptide fusion (GPS, HEK-293T) (PSI 1-6); higher = more stable.
The mark [1] stands for this setting: treatment: DMSO, c terminus: a fixed tail appended.
Setting [2] is: treatment: MLN4924 1 uM, 8 h, c terminus: a fixed tail appended.
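Further: 24-mer peptide tiles fused after GFP, lentivirally expressed, FACS-sorted into six equal bins by GFP/DsRed ratio, decoded by Illumina sequencing, PSI is the read-weighted mean bin number.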

Sequence SGMVTIITGLPLDNPSVLSGPMQA [SMG5] showed a protein stability index under setting [1] of 2.32 ± 0.35 and a protein stability index under setting [2] of 2.14 ± 0.39.
On the same counts, the results for SGQYRELGGAIDFGAAYVLEQASS [ATL3] are 3.47 ± 0.27 and 3.61 ± 0.41.
For SHAGKVVLRSWYEKNKHIFPASRW [FAM50A], in that order: 2.4 ± 0.3 and 2.58 ± 0.21.
On the same counts, the results for SHAIHVEEQSDQSFSSLEPDNEQL [IQUB] are 5.38 ± 0.27 and 5.63 ± 0.17.
In the case of SHHSKHKAPSKLGLIISGPILQEG [DLC1], the protein stability index is 3.08 ± 0.2 under setting [1] and 3.28 ± 0.13 under setting [2].
In the case of SIHYAAAYGHRQCLELVSCFVLFS [ANKRD44], the protein stability index runs as follows: under setting [1], 2.25 ± 0.44; under setting [2], 2.2 ± 0.52.
On the same counts, the results for SILFGFWTSFICDTYIVLAWISKI [SMIM2] are 3.15 ± 0.34 and 3.31 ± 0.25.
For SKLASMSNDFKSVLEVRTENLKQQ [STX5], in that order: 4.04 ± 0.28 and 4.21 ± 0.32.
As for SKNGNGLKNTPRFKRRRVRRRRME [PCMTD2], the protein stability index runs as follows: under setting [1], 4.6 ± 0.2; under setting [2], 4.58 ± 0.32.
On the same counts, the results for SLAGALGVKFVGLFIILQVGLNTI [POMT2] are 3.27 ± 0.16 and 3.16 ± 1.2.
On the same counts, the results for SLDGRDPGNGTHGLSPEEKEQLSN [ELOA2] are 5.48 ± 0.23 and 5.64 ± 0.16.
For SLDISGHMILENCSISKMEEEAGQ [ZER1], in that order: 4.66 ± 0.22 and 4.68 ± 0.22.
Consider SLGAVGEGFHNYHHSFPYDYSASE [SCD], for which the protein stability index amounted to 3.81 ± 0.24 under setting [1] and 3.88 ± 0.28 under setting [2].
For the sequence SLKLIKRLYVDKSLNLSTEFISST [SERPINB5], the protein stability index was 2.38 ± 0.26 under setting [1] and 2.11 ± 0.15 under setting [2].
For SLNMSRRDSESTRHDSETEDMLWD [PHTF1], in that order: 5.32 ± 0.15 and 5.26 ± 0.2.
For SLQEEPVEGFRITLVDESDLYNWE [UBE2R2], in that order: 3.66 ± 0.49 and 3.58 ± 0.4.
For SMAAVPTLELCHDELFADLFNSNH [CEBPD], in that order: 3.57 ± 0.3 and 3.6 ± 0.26.
Turning to SNDFKSVLEVRTENLKQQRSRREQ [STX5], the protein stability index under setting [1] came to 4.9 ± 0.21 and the protein stability index under setting [2] was 4.92 ± 0.31.
On to SNFETYPENDWDTAAPVPQKDLEI [PRKX], for which the protein stability index came to 5.03 ± 0.12 under setting [1] and 5.15 ± 0.2 under setting [2].
On to SNNKKNDEMQEVPNRVLAPEQSLK [SPANXN3], for which the protein stability index under setting [1] turned out to be 5.27 ± 0.16 and the protein stability index under setting [2] was 5.36 ± 0.17.
On the same counts, the results for SPAGELPKTVQQPTESEPVTINIQ [MATN2] are 5.29 ± 0.31 and 5.24 ± 0.38.
On the same counts, the results for SPAPLDTCPSSSTASSISSSGGSS [DYRK1B] are 5.33 ± 0.16 and 5.35 ± 0.088.
Take SPINSPARGTPSPKRMPSGRGGRD [FSD1]: the protein stability index came to 5.22 ± 0.15 under setting [1] and 5.04 ± 0.35 under setting [2].
For SPLHAAAEAGHVDICHMLVQFCRL [EHMT1], in that order: 2.25 ± 0.069 and 2.5 ± 0.37.
In turn, SPSFPEAPDSGRSAPYSAAFLELP [TBX6] had a protein stability index under setting [1] of 3.96 ± 0.3 and a protein stability index under setting [2] of 3.93 ± 0.44.
Consider SQEYQILLDVKTRLEQEIATYRRL [KRT16], for which the protein stability index by setting is: under setting [1], 2.71 ± 0.34; under setting [2], 2.88 ± 0.44.
For SQKATRECEKSALTPGFSDNAIML [FAN1], in that order: 3.85 ± 0.22 and 3.98 ± 0.17.
On the same counts, the results for SQKEMDKAETKTKKAAESLRRSVE [FCHO1] are 5.24 ± 0.29 and 5.23 ± 0.38.
As for SQKGCLALSLLELLGFNLTFVFLA [CLCN6], the protein stability index is, setting by setting: under setting [1], 3.15 ± 0.42; under setting [2], 3.03 ± 0.42.
SQLDSGVSQAVEGPEELSRSSSES [RIPK4]: the protein stability index is, setting by setting: under setting [1], 5.5 ± 0.087; under setting [2], 5.54 ± 0.26.
On the same counts, the results for SQMPPPAGGTSDDPEPSGPHLPRV [SCNN1D] are 5.23 ± 0.31 and 5.43 ± 0.12.
On the same counts, the results for SQQQNMMQDYVRTGTYQRAILQNH [CARM1] are 3.21 ± 0.27 and 3.12 ± 0.23.
The sequence SREKTACAINKVGVSFSTVENELM [FAM98B] showed a protein stability index under setting [1] of 3.35 ± 0.28 and a protein stability index under setting [2] of 3.63 ± 0.5.
With SRESSKPRAVLKPRRVCVGGKRRR [PPP2R2C], the protein stability index runs as follows: under setting [1], 4.94 ± 0.33; under setting [2], 4.87 ± 0.19.
As for SRSSILVQHQRVHTGEKPYKCLEC [ZNF24], the protein stability index runs as follows: under setting [1], 3.54 ± 0.19; under setting [2], 3.65 ± 0.23.
On the same counts, the results for SSEVGPFVSKIRAVINDIANLPVP [AUH] are 2.64 ± 0.25 and 2.62 ± 0.42.
On the same counts, the results for SSFSLLLDLLSELYQKQPKIGYHL [INTS3] are 3.05 ± 0.2 and 2.86 ± 0.62.
For SSGNTVLLLILCMQHSFPEPGRLY [TMEM192], in that order: 3.1 ± 0.73 and 3.09 ± 0.53.
As to SSSFSNLDLSEEDSDDPSVTLELS [VDR], the protein stability index by setting is: under setting [1], 5.35 ± 0.23; under setting [2], 5.16 ± 0.28.
On the same counts, the results for SSSSSASSSASSSFSEEGAVGYSS [NFE2L1] are 5.25 ± 0.16 and 5.32 ± 0.13.
For SSSSSSQAPGQPPGNQAEHGAVTV [ZBTB22], in that order: 5.12 ± 0.15 and 5.08 ± 0.24.
For SSYVASIVDGGESRSEKGDSSRY [RBMY1A1], the protein stability index is, setting by setting: (treatment: DMSO, c terminus: native) 4.35 ± 0.28; (treatment: MLN4924 1 uM, 8 h, c terminus: native) 4.27 ± 0.35.
Turning to STALERPSFLSQTGHGVSRGPSPV [FCHO1], the protein stability index reads like this: under setting [1], 4.1 ± 0.34; under setting [2], 4.28 ± 0.42.
On the same counts, the results for STNEEEKEENEAESDVKHRTRDYK [PRIM1] are 5.57 ± 0.17 and 5.16 ± 0.47.
Take STNLGVNQAGFTLHSAIYAARPDV [ADD1]: the protein stability index is 3.02 ± 0.18 under setting [1] and 3.08 ± 0.35 under setting [2].
With STSFRVYIMAFDIKSEDMLKILKP [FBXO33], the protein stability index is 2.14 ± 0.59 under setting [1] and 3.02 ± 0.51 under setting [2].
On the same counts, the results for SVHNDLWESWFVPDPAGIFKLNHH [GLT8D2] are 2.38 ± 0.18 and 2.53 ± 0.22.
On the same counts, the results for SVNTHDYAKVKEFIVDILQFLDIG [MATN2] are 2.23 ± 0.35 and 2.05 ± 0.32.
As to SVSKAQSIYGIPHSTLEYKVKERL [LCOR], the protein stability index is 3.42 ± 0.43 under setting [1] and 3.54 ± 0.13 under setting [2].
Consider SVTDVTTSSLRLNWEAPPGAFDSF [TNXB], for which the protein stability index is 3.54 ± 0.2 under setting [1] and 3.35 ± 0.16 under setting [2].
For SVVGTVLAATQAEKAVANFDRTEW [ZC2HC1C], in that order: 3.26 ± 0.21 and 3.26 ± 0.3.
For SVVPEMEESGAQLLLEMLTFNPHK [CDK4], in that order: 3.14 ± 0.26 and 3.15 ± 0.38.
For SWAWRGPGVLKVLWLTASQPCSIV [LPCAT4], in that order: 2.74 ± 1.1 and 2.52 ± 0.84.
